Our source for the Kd values is article PMC2910053.

The series addresses Cy3B-SSB (W88C SSB labeled with Cy3B, one per monomer) W89C (UniProt P0AGE0). Kind of series: bulk fluorescence.

In general, Kd refers to the concentration at which binding is half-saturated. A low value points to a tighter complex. On to ssDNA (unspecified, bulk assay), for which the dissociation constant (Kd) is less than 2.5 nM.
